The results in this text go back to paper PMC10189049.

The assay concerns the target TCR Vβ3.1 on CH7C17 Jurkat cells. The assay can be described thus: fluorescence microscopy of labelled protein on cells.

“Staphylococcal Enterotoxin B (from UniProt P01552 28-266) (natural protein)” registered an MFI at 5 minutes of 427.
